Source: publication PMC10801921
Numbering of substitutions follows the chain as printed.

Tests used:
ARR1 DBD (crystal) = target: T1, ARR1 DBD (crystal) (Arabidopsis thaliana, UniProt Q940D0 221-301); assay: X-ray crystallography
T1 sequence: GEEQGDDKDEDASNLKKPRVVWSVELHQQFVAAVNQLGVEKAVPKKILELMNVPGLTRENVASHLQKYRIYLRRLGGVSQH

ARR1 RD-DBD R294A = target: T2, ARR1 RD-DBD R294A (Arabidopsis thaliana, UniProt Q940D0 1-301, R294A); assay: BLI
T2 sequence: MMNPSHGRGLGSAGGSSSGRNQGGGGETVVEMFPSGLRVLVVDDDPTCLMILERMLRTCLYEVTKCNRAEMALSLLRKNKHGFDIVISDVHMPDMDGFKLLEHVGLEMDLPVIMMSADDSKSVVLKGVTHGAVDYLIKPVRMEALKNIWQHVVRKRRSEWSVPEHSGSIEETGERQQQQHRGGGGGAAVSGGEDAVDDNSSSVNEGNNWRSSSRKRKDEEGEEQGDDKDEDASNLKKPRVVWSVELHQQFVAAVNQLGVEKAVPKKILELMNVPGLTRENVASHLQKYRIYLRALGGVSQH

ARR1 RD-DBD D89E = target: T3, ARR1 RD-DBD D89E (Arabidopsis thaliana, UniProt Q940D0 1-301, D89E); assay: BLI
T3 sequence: T2 sequence with D89E, A294R

B1: DNA-TCS 25 bp (crystal) (dsDNA)
DNA 1: AATCCAGATTAATCTAATCTAATCC
DNA 2: GGATTAGATTAGATTAATCTGGATT
B1: binds (ARR1 DBD (crystal)).

B2: DNA-TCS 40 bp (ARR6-40) (dsDNA)
DNA 1: GGATTAGATTAGATTAATCTGGATTAGATTAATCTAGATT
DNA 2: AATCTAGATTAATCTAATCCAGATTAATCTAATCTAATCC
B2: binds (ARR1 RD-DBD R294A); binds (ARR1 RD-DBD D89E).
